# In the supplement of paper PMC12042874:
# ± gives the uncertainty stated by the source.
# Assay: amyloid nucleation score (Sup35N fusion, yeast selection) (log enrichment); library NNK3; higher = more nucleation; inactive = no reads after selection
# In short: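 The nucleation score, computed with DiMSum, is the log enrichment of output over input reads, centred on the mode score of non-aggregating sequences. Sequences with under 100 input reads were dropped. Reads were generated by Illumina sequencing of plasmid inserts from psi-negative yeast with Sup35N fused to peptides of 20 random codons, induced with 100 μM copper sulfate for 24 hours and grown 7 days at 30°C on medium lacking adenine and uracil.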
row,Substance,amyloid nucleation score
1,GVGGPDGCTGNDTFMRQYTN,inactive
2,GVGVMLSYKGIFMHLSFVGE,inactive
3,GVHWETDEGNVVRL,inactive
4,GVIFEISVSCVQTFCPFHYL,1.21 ± 0.093
5,GVIILSLTAKCQAMDSVRTL,0.841 ± 0.14
6,GVLCMFGSTWRMFMEVGLHV,inactive
7,GVLMNHIELL,inactive
8,GVLSYNMIHT,inactive
9,GVLYDGVGDNHCCGSRKLVL,inactive
10,GVRHRLAVFQYMFTHVLWTM,inactive
11,GVRLAWVTSCCRV,inactive
12,GVTLTTLDSLSDFGWLIE,inactive
13,GVVVWYSGDWTECMVVNRCD,0.78 ± 0.12
14,GWFMCVSTAWGVYNAYIPMQ,inactive
15,GWFRSQSMPIALEYLTGPGS,inactive
16,GWGPRPSKNVCHIRCDMFFM,1.59 ± 0.13
17,GWGVHWFYIMVINHLF,inactive
18,GWNLGMAHSRRYGPVNISAW,inactive
19,GWNLTHRMSTGSKLLCPLRI,inactive
20,GWRRPNSYDLEAEFMRKSGG,inactive
21,GWSDRFSMLYSFLLLLWKSP,inactive
22,GWSLGARSNYGLSTGQRGCA,inactive
23,GWWVRHSWGDGSVASVCIKM,inactive

row,Substance,amyloid nucleation score
1,GYCNESTVWYDS,inactive
2,GYDVRL,inactive
3,GYERSDKKLDKKVL,inactive
4,GYFTRFSVFNNMEPLSCCMC,1.38 ± 0.13
5,GYGHVIYLYYCQRHDNPQVQ,inactive
6,GYIRPALMARGYIVVNSANI,inactive
7,GYLLRFMCCNCIPSTEIMIE,2.73 ± 0.056
8,GYPFSRLSSVV,inactive
9,GYRLRYNFVVFLM,1.02 ± 0.21
10,GYSVYYANVSVRGLKSRDHC,inactive
11,GYTRVRVGCYVTVRKFWSMT,-0.14 ± 1
12,GYVTCDLL,1.1 ± 0.11
13,GYYNSYQAELMTTACSDYVD,inactive
14,HALFGYISRVDNLYSSMVSH,inactive
15,HAVPVYD,-0.394 ± 1.9
16,HCDLGESFTALYSFHAVLML,inactive
17,HCFTVWWEWP,inactive
18,HCGYGLFNCK,inactive
19,HCNFMRFCLRAFSSGMHWLF,inactive
20,HCSCDGAIRYDILQSNHKE,inactive
21,HDDSTSNNSPVSRKPLSPWS,inactive
22,HDHFWLYCMCNRTSGYLESF,inactive
23,HDRTVSLQYRVNTRVRLASW,inactive

row,Substance,amyloid nucleation score
1,HDTPFMCV,inactive
2,HDVFSNYLITVQTFLWLSGV,inactive
3,HELELRFLSGWSREFLELEG,inactive
4,HELFRTSHRLRCYFNPHSHI,inactive
5,HELLMVSENVRCDAKSHG,inactive
6,HEMAYVVPTLVYYVYNTNSR,-0.076 ± 0.66
7,HESKTMRKEEIMYTRWYKVL,inactive
8,HFETNTVFQVFEICIVSCCY,2.34 ± 0.067
9,HFILVNIAFLVTDPHWLVRV,inactive
10,HFLFRVRRGTWK,0.396 ± 0.34
11,HFMFGYGCTRSGQTRSPGFN,1.88 ± 0.11
12,HFQMRAERDESSNRPYSSFG,inactive
13,HFRDAVGWGFINGCHPAGSG,inactive
14,HFSSYDTDRINAVPKIWTIR,inactive
15,HFVLCDHYVR,inactive
16,HFVTDDNGGICDVDNV,inactive
17,HFYRLAYTSISWVYRSLGAE,inactive
18,HGCWKQPDQVVLLWSHRFFR,inactive
19,HGCYFYYSCTFYC,3.29 ± 0.08
20,HGERSDKMLDSGSPYMAPSG,inactive
21,HGFLFCGFSNYKCVQGNMTF,inactive
22,HGFSMTFRLLTFFHGKNYCM,inactive
23,HGHSQFL,inactive

row,Substance,amyloid nucleation score
1,HGMGYRAIFIFNLISQPRLE,2.52 ± 0.078
2,HGMTIMLGVGWYLWDGSTEG,0.657 ± 0.16
3,HGPAMTSRSRNTSVLVLVSP,inactive
4,HICIMNMLRFRCIWIPIFYM,inactive
5,HIFSKVSYNFEFPRNDCCRY,inactive
6,HISCMCLIYIV,2.24 ± 0.088
7,HIVNLFRLYYIAMWGSVCHV,inactive
8,HIVSSAMSVT,inactive
9,HIWTIRVMFWRELRLLITPI,inactive
10,HKCGQDFYR,inactive
11,HKCMCVY,inactive
12,HKMDWYIGLFRLMHTVAVLM,inactive
13,HKMRRAYLKECFVWDYVSCD,inactive
14,HKWGCGL,-0.539 ± 1.5
15,HKYSEGSLNTFRRLRRSRFS,inactive
16,HLFINL,inactive
17,HLKCPRERLT,inactive
18,HLNYYGAL,inactive
19,HLRLRRTFGINLH,inactive
20,HLSLRNNNAPDYPSGNSFWE,inactive
21,HLSPVNSK,inactive
22,HLVKEGDNTMVGGYPFQWMT,inactive
23,HLVRCNDRSNLRESGPS,inactive

row,Substance,amyloid nucleation score
1,HLYDKSMNVGSRSARAELSM,inactive
2,HLYLSSVENLKHLFKGVSVH,-0.381 ± 0.9
3,HMMTRAASVSLSVQQ,inactive
4,HMPVSIFSAFVYMTQNHAIG,1.75 ± 0.062
5,HMQTGDDRLMQAAYMHLEHI,inactive
6,HMSSLITVS,inactive
7,HMWLFKIQDLMLAHPITGSW,inactive
8,HNILFSDLGFYRSYYNADSM,inactive
9,HNISAIYDRNRF,inactive
10,HNKAETTPLSHCMQSSSKLL,inactive
11,HNNIAFSLVVNDESVLWCFN,1.97 ± 0.053
12,HNRRKR,-0.16 ± 0.4
13,HNVAYCSGGFCDPYSNFREG,inactive
14,HPIANVV,inactive
15,HQSISGWLVRGLTAGSGAVC,-0.496 ± 0.96
16,HQTLKSQD,inactive
17,HQVGYGLHGPG,-0.539 ± 0.96
18,HQYWEGCSMLYL,inactive
19,HRAPMSHPVCLMIKWLLWVL,inactive
20,HRFSVWSEYCILIFRLQHRP,inactive
21,HRLVRLSVRMSRRTYS,inactive
22,HRYYYFF,1.83 ± 0.093
23,HSFIDERWSLYYERVLVYTG,inactive

row,Substance,amyloid nucleation score
1,HSRMWVTGLVSCVSGYMQVV,inactive
2,HSTTSLWSVVSVQSKTFMLK,inactive
3,HSVIIAAMLSEISVSGLISG,inactive
4,HTGHHWNRLHETQNSRL,inactive
5,HTRWLGYNSHRGYLFLMSKF,0.104 ± 0.9
6,HTVLILVCAFKNAG,inactive
7,HTYLFRSMS,inactive
8,HVAKVGTFNWTHNGYDNCFV,inactive
9,HVCHKTYLSLKLHKLDFFYS,0.391 ± 0.17
10,HVFYIVYSFISLRNHVAYLS,inactive
11,HVLNEWKSNTGLVVSSAWFC,1.43 ± 0.087
12,HVLSVQTLYLFCKGLKESGT,0.809 ± 0.16
13,HVNLIDTKNSLMQMLN,inactive
14,HVNMSNIVLVLFSNSFNMHE,1.75 ± 0.082
15,HVVGQDIRV,inactive
16,HVVIARTNRGDYNCFSSDGG,inactive
17,HVVKSRSGLIMVWRPLL,-0.65 ± 1.1
18,HWMVSCYFSVRLRARLSRRG,inactive
19,HWTLKMTVQHVFMLGASCRY,inactive
20,HYLQS,inactive
21,HYNSSSFRVGPCVSLGNHTQ,inactive
22,HYRFNNACLDRGHSEGYWRI,inactive
23,HYVIV,inactive

row,Substance,amyloid nucleation score
1,HYYVTVTHGS,inactive
2,IAALNFSCRTLSL,inactive
3,IADFNSL,inactive
4,IAFEVY,inactive
5,IAGFRNGSPANNAVGKPG,inactive
6,IAHWAWGMELIIYQIPNHFR,0.407 ± 0.25
7,IAIKNSSRRYMNYERLFTKL,inactive
8,IAMSRSACRYVFECYIYFFF,inactive
9,IARSREI,inactive
10,IATTDIYAAYFYSLMQAIYR,inactive
11,IAYNMCEIYVRVCYYFPIIC,inactive
12,ICAVFWDCMISRSCDTALYS,inactive
13,ICCTSS,inactive
14,ICLCLHCIYSRSITSAVLSA,inactive
15,ICNIYCCCQG,2.6 ± 0.069
16,ICRRPYFSHLRSHRGFQNTD,inactive
17,ICSGTSH,-0.268 ± 0.6
18,ICSII,inactive
19,ICSLCEHSFVRVNGMYWHRE,2.02 ± 0.092
20,ICTDGVHGCMVGS,inactive
21,ICVCEQSTVVYTKELSTFGA,0.012 ± 0.27
22,ICWMRDTTVVGFRWV,-0.07 ± 0.96
